pEC50: −log10 of the molar value.
Biological target: human serum albumin (HSA) (human) (UniProt P02768)
Assay: competition SPA on biotinylated HSA, 125I acylated GLP-1 tracer

N-epsilon37-[2-(2-[2-(2-[2-(2-((R)-3-[1-(17-Carboxyheptadecanoyl)piperidin-4-ylcarbonylamino]3-carboxypropionylamino)ethoxy)ethoxy]acetylamino)ethoxy]ethoxy)acetyl][DesaminoHis7, Glu22 Arg26, Arg 34,, sequence (peptide): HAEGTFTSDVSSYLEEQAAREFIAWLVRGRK

pEC50: 6.10
Substance: N-epsilon37-[2-(2-[2-(2-[2-(2-((R)-3-[1-(17-Carboxyheptadecanoyl)piperidin-4-ylcarbonylamino]3-carboxypropionylamino)ethoxy)ethoxy]acetylamino)ethoxy]ethoxy)acetyl][DesaminoHis7, Glu22 Arg26, Arg 34, Phe(m-CF3)28]GLP-1-(7-37)amide (peptide)

From patent publication US20140011732A1
